# Measurements reported in FireProtDB (doi:10.1021/bi951726o).
# B1: Tryptophan synthase alpha chain wild type, P0A877 (protein)
# chain: MERYESLFAQLKERKEGAFVPFVTLGDPGIEQSLKIIDTLIEAGADALELGIPFSDPLADGPTIQNATLRAFAAGVTPAQCFEMLALIRQKHPTIPIGLLMYANLVFNKGIDEFYAQCEKVGVDSVLVADVPVEESAPFRQAALRHNVAPIFICPPNADDDLLRQIASYGRGYTYLLSRAGVTGAENRAALPLNHLVAKLKEYNAAPPLQGFGISAPDQVKAAIDAGAAGAISGSAIVKIIEQHINEPEKMLAALKVFVQPMKAATRS
# Conditions: Escherichia coli (strain K12), pH 7.8, Urea, NMR, Potassium phosphate 58 mM, reversible: yes, whole UniProt chain shown
protein,measurement,setting,value
B1,denaturant midpoint (higher = more stable),5 °C,4.8 M
same,unfolding free energy,5 °C,4.8 kcal/mol
same,denaturant midpoint (higher = more stable),10 °C,4.6 M
same,unfolding free energy,10 °C,5.5 kcal/mol
same,denaturant midpoint (higher = more stable),15 °C,4.7 M
same,unfolding free energy,15 °C,6.1 kcal/mol
same,denaturant midpoint (higher = more stable),20 °C,5.4 M
same,unfolding free energy,20 °C,7.5 kcal/mol
same,denaturant midpoint (higher = more stable),25 °C,5.9 M
same,unfolding free energy,25 °C,8.2 kcal/mol
